Paper PMC8292550, “Molecular characterization of direct interactions between MPP1 and flotillins” (Scientific Reports, 2021)

B1: recombinant His-tagged flotillin 1 (natural protein, UniProt O75955-1 1-427, looked up)
chain: MFFTCGPNEAMVVSGFCRSPPVMVAGGRVFVLPCIQQIQRISLNTLTLNVKSEKVYTRHGVPISVTGIAQVKIQGQNKEMLAAACQMFLGKTEAEIAHIALETLEGHQRAIMAHMTVEEIYKDRQKFSEQVFKVASSDLVNMGISVVSYTLKDIHDDQDYLHSLGKARTAQVQKDARIGEAEAKRDAGIREAKAKQEKVSAQYLSEIEMAKAQRDYELKKAAYDIEVNTRRAQADLAYQLQVAKTKQQIEEQRVQVQVVERAQQVAVQEQEIARREKELEARVRKPAEAERYKLERLAEAEKSQLIMQAEAEAASVRMRGEAEAFAIGARARAEAEQMAKKAEAFQLYQEAAQLDMLLEKLPQVAEEISGPLTSANKITLVSSGSGTMGAAKVTGEVLDILTRLPESVERLTGVSISQVNHKPLRTA
notes: flotillin 1; the discussion speaks of bacterially expressed proteins; also called FL1
B2: recombinant His-tagged flotillin 2 (natural protein, UniProt Q14254 1-428, looked up)
chain: MGNCHTVGPNEALVVSGGCCGSDYKQYVFGGWAWAWWCISDTQRISLEIMTLQPRCEDVETAEGVALTVTGVAQVKIMTEKELLAVACEQFLGKNVQDIKNVVLQTLEGHLRSILGTLTVEQIYQDRDQFAKLVREVAAPDVGRMGIEILSFTIKDVYDKVDYLSSLGKTQTAVVQRDADIGVAEAERDAGIREAECKKEMLDVKFMADTKIADSKRAFELQKSAFSEEVNIKTAEAQLAYELQGAREQQKIRQEEIEIEVVQRKKQIAVEAQEILRTDKELIATVRRPAEAEAHRIQQIAEGEKVKQVLLAQAEAEKIRKIGEAEAAVIEAMGKAEAERMKLKAEAYQKYGDAAKMALVLEALPQIAAKIAAPLTKVDEIVVLSGDNSKVTSEVNRLLAELPASVHALTGVDLSKIPLIKKATGVQV
notes: flotillin 2; also called FL2
B3: MPP1-Mut3 (residues 211–292) (domain or fragment, human, UniProt Q00013 211-292, looked up)
chain: SKESAGLIPSPELQEWRVASMAQSAPSEAPSCSPFGKKKKYKDKYLAKHSSIFDQLDVVSYEEVVRLPAFKRKTLVLIGASG
notes: MPP1 (p55), human, residues 211-292
B4: MPP1-Mut2 (residues 151–237) (domain or fragment, human, UniProt Q00013 151-237, looked up)
chain: NQQSRLPALQMFMRAQFDYDPKKDNLIPCKEAGLKFATGDIIQIINKDDSNWWQGRVEGSSKESAGLIPSPELQEWRVASMAQSAPS
notes: MPP1 (p55), human, residues 151-237
B5: MPP1-Mut4 (residues 231–466) (domain or fragment, human, UniProt Q00013 231-466, looked up)
chain: MAQSAPSEAPSCSPFGKKKKYKDKYLAKHSSIFDQLDVVSYEEVVRLPAFKRKTLVLIGASGVGRSHIKNALLSQNPEKFVYPVPYTTRPPRKSEEDGKEYHFISTEEMTRNISANEFLEFGSYQGNMFGTKFETVHQIHKQNKIAILDIEPQTLKIVRTAELSPFIVFIAPTDQGTQTEALQQLQKDSEAIRSQYAHYFDLSLVNNGVDETLKKLQEAFDQACSSPQWVPVSWVY
notes: MPP1 (p55), human, residues 231-466; A FLAG form (p3XFLAG-CMV-10) was expressed in HEL cells for the functional tests only
B6: endogenous MPP1 (HEL cells) (natural protein)
chain: MTLKASEGESGGSMHTALSDLYLEHLLQKRSRPEAVSHPLNTVTEDMYTNGSPAPGSPAQVKGQEVRKVRLIQFEKVTEEPMGITLKLNEKQSCTVARILHGGMIHRQGSLHVGDEILEINGTNVTNHSVDQLQKAMKETKGMISLKVIPNQQSRLPALQMFMRAQFDYDPKKDNLIPCKEAGLKFATGDIIQIINKDDSNWWQGRVEGSSKESAGLIPSPELQEWRVASMAQSAPSEAPSCSPFGKKKKYKDKYLAKHSSIFDQLDVVSYEEVVRLPAFKRKTLVLIGASGVGRSHIKNALLSQNPEKFVYPVPYTTRPPRKSEEDGKEYHFISTEEMTRNISANEFLEFGSYQGNMFGTKFETVHQIHKQNKIAILDIEPQTLKIVRTAELSPFIVFIAPTDQGTQTEALQQLQKDSEAIRSQYAHYFDLSLVNNGVDETLKKLQEAFDQACSSPQWVPVSWVY

What was measured:
[1] = molecular target: T1, full length recombinant MPP1 (human, UniProt Q00013 1-466); test: SPR; His-tagged flotillin 1 or 2 captured on a Ni-NTA sensor chip (about 4000 RU), BIAcore T200; untagged MPP1 or its truncated mutants as analytes (at least five concentrations, 50-2000 nM), association 360 s, dissociation 600 s; HBS-T; global fit, 1:1 Langmuir model with mass transport step; conditions: both partners purified
T1 construct: MPP1 (p55), human erythroid, full length; also called p55; MPP1(p55)
T1 sequence (looked up): B6 chain

[2] = molecular target: B1; test: as above; conditions: both partners purified
[3] = molecular target: B2; test: as above; conditions: both partners purified
[4] = molecular target: B2; test: as above; conditions: both partners purified; remark: listed apart in the source
[5] = molecular target: flotillins (endogenous, HEL cells)
[6] = molecular target: flotillins (endogenous, HEL cells); remark: listed apart in the source

Binder	Kd [1]	koff [1]	kon [1]	Kd [2]	koff [2]	kon [2]	Kd [3]	koff [3]	kon [3]	Kd [4]	fluorescence lifetime of di-4-ANEPPDHQ (FLIM) in the plasma membrane of HEL cells transfected with MPP1-Mut4-FLAG (~ 3.83 ns) compared to FLAG control (~ 3.98 ns) [5]	reduction of the pERK1/2 level after insulin stimulation in HEL cells transfected with MPP1-Mut4 compared to FLAG control [6]
B1	22.8 nM	0.00103 s⁻¹	45000 M⁻¹ s⁻¹									
B2	31 nM	0.00128 s⁻¹	41300 M⁻¹ s⁻¹									
B3				137 nM	0.000515 s⁻¹	3750 M⁻¹ s⁻¹	199 nM	0.000828 s⁻¹	4170 M⁻¹ s⁻¹			
B4				702 nM	0.00118 s⁻¹	1680 M⁻¹ s⁻¹	982 nM	0.0016 s⁻¹	1630 M⁻¹ s⁻¹	686 nM		
B5				39.2 nM	0.000319 s⁻¹	8130 M⁻¹ s⁻¹	50.2 nM	0.000281 s⁻¹	5600 M⁻¹ s⁻¹			
B6											0.15 ns	46%
